Laboratory results as given in patent CN107042099A.

Key:
[1] = biological target: Myc-GST融合蛋白 (Myc-GST fusion protein); assay: indirect ELISA, Myc-GST coated at 5 μg/mL, HRP anti-His secondary antibody, heat test at 90℃
[2] = biological target: Myc-GST融合蛋白 (Myc-GST fusion protein); assay: indirect ELISA, Myc-GST coated at 5 μg/mL, HRP anti-His secondary antibody, heat test at 80℃
[3] = biological target: Myc-GST融合蛋白 (Myc-GST fusion protein); assay: indirect ELISA, Myc-GST coated at 5 μg/mL, HRP anti-His secondary antibody, heat test at 70℃

OD450 [1]: 1 OD450
OD450 [2]: 1.2 OD450
OD450 [3]: 1.4 OD450
B1: 抗c-Myc标签单域重链抗体 (anti-c-Myc tag single-domain heavy-chain antibody) (VHH, not shown: small tags and cut ends)
VHH: QLQLVESGGGLVRPGESLRLSCDASSSEPPLLAYVVSWFRQVPGKEREGISCSSSSGVRNSYADSVKGRFTISRDNHKNTVYLQMNSLQAEDTAIYYCAAARLGARGCDFREDLQGTWGQGTQVTVSS
